Like-named read-outs stand apart in the source and are kept apart here. No end group written: not given here.
Key:
[1] = target: galanin receptors; details: hypothalamus, ventral hippocampus, basal forebrain, spinal cord, pancreas, pituitary; read-out: Kd of specific binding; cited from earlier work
[2] = target: T1, rat GALR1 (Rattus norvegicus, UniProt Q62805); assay: biochemical
T1 sequence (Q62805 1-346): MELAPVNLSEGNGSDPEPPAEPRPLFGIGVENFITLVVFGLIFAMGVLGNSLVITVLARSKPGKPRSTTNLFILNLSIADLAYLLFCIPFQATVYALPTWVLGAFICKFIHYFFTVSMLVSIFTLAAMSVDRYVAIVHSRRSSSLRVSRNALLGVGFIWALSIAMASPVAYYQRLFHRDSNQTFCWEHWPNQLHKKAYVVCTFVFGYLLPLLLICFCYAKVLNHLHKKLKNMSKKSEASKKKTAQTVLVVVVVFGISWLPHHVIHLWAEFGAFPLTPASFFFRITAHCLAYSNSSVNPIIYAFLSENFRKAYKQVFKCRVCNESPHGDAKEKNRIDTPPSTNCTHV

[3] = target: T2, rat GALR2 (clone 27A) (Rattus norvegicus, UniProt O08726); assay: biochemical
T2 sequence (O08726 1-372): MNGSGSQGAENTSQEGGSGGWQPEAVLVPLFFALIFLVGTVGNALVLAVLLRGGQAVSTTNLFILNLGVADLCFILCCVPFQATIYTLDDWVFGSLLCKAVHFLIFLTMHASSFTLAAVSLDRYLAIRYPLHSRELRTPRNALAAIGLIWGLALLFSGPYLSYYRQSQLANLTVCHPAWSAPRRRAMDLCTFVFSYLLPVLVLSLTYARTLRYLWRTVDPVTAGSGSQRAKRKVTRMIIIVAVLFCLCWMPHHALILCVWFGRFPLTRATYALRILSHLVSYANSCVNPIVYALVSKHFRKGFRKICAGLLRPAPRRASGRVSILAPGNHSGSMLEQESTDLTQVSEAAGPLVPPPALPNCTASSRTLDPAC

[4] = target: T2, rat GALR2 (clone 27A)
Method: Mammalian COS-7 cells were transfected by electroporation. COS-7 cells (1×10^7) were suspended in 0.85 ml of Ringers' buffer and 15 mg of the pCI.neo/27A clone was added to a 0.4 mm electroporation cuvette (Bio-Rad, Hercules, Calif.). Current was applied (960 μF, 260 V) using a Bio-Rad Electroporator device and the cells were transferred to a T-180 flask (Corning). Expression was allowed to proceed for 72 hrs.
(§1) Membranes were prepared from transfected cells following dissociation in enzyme-free dissociation solution (Specialty Media, Lavallette, N.J.) by disruption in a Dounce homogenizer in ice-cold membrane buffer (10 mM Tris, pH 7.4, 10 mM PMSF, 10 μM phosphoramidon, and 40 μg/ml bacitracin). After a low speed (1100×g for 10 min. at 4° C.) and a high speed centrifugation (38,700×g for 15 min. at 4° C.), membranes were resuspended in buffer and protein concentration determined (Bio-Rad assay kit). […] Reactions were initiated by the addition of membranes and the incubation was allowed to proceed at room temperature for 1 hour. […] Incubations were terminated by rapid filtration through GF/C filters which had been presoaked with 0.1% polyethylamine using a TOMTEC (Orange, Conn.) cell harvester. The results were analyzed using the Prism software package (GraphPad, San Diego, Calif.).

[5] = target: T1, rat GALR1
Method: as §1

[6] = target: T3, human GALR2 (Homo sapiens, UniProt O43603); assay: Aequorin bioluminescence assay in 293-AEQ17 cells, human GALR2; format: cell-based; details: read-out: EC50, aequorin bioluminescence; human GALR2 in 293-AEQ17 cells
T3 construct: expressed in transfected cells; host or cells: 293-AEQ17 (aequorin-expressing 293 line)
T3 sequence (O43603 1-387): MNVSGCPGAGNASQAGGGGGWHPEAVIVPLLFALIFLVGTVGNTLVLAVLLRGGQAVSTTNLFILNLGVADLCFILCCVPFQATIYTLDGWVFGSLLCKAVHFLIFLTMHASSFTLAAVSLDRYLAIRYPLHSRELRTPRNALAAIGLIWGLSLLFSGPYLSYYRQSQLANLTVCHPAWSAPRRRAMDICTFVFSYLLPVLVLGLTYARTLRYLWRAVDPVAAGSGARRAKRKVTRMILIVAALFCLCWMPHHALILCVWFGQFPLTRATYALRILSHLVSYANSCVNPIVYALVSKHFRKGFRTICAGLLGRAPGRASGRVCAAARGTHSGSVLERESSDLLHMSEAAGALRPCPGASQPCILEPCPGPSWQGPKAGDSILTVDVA

[7] = target: hGALR1* (human) (UniProt P47211); assay: competition
[8] = target: hGALR2 (UniProt O43603); assay: competition
[9] = target: rat GALR2 (UniProt O08726); assay: competition
[10] = target: T4, rat GALR1 (rat, UniProt Q62805 1-346); assay: competition of 125I-human galanin binding, membranes
T4 sequence: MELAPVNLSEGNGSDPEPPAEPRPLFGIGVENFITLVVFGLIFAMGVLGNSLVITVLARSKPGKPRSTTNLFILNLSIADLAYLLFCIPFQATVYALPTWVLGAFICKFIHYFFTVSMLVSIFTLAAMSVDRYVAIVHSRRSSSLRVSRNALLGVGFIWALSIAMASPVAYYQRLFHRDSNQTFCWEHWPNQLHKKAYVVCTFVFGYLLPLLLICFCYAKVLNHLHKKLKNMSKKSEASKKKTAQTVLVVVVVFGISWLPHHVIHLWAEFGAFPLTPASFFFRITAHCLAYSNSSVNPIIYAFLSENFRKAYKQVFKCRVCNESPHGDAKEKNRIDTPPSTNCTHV

[11] = target: T5, rat GALR2 (clone 27A) (rat, UniProt O08726 1-372); assay: competition of 125I-human galanin binding, COS-7 membranes
T5 construct: Full-length 372-amino-acid receptor expressed in transiently transfected COS-7 cells; also called pCI.neo/27A
T5 sequence: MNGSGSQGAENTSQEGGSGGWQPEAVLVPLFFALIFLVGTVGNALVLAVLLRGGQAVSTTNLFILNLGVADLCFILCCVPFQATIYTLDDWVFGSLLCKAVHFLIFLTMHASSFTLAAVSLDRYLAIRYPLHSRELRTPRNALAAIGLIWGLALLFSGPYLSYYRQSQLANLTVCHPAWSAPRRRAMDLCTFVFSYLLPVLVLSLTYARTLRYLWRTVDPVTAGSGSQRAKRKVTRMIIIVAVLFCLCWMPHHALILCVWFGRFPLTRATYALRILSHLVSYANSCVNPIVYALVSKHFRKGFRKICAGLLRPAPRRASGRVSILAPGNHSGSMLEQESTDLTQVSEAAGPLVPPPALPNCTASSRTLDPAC

[12] = target: hGALR2 (UniProt O43603); assay: cell-based or functional assay
[13] = target: T6, human GALR2 (human, UniProt O43603 1-387); assay: cell-based or functional assay
T6 sequence: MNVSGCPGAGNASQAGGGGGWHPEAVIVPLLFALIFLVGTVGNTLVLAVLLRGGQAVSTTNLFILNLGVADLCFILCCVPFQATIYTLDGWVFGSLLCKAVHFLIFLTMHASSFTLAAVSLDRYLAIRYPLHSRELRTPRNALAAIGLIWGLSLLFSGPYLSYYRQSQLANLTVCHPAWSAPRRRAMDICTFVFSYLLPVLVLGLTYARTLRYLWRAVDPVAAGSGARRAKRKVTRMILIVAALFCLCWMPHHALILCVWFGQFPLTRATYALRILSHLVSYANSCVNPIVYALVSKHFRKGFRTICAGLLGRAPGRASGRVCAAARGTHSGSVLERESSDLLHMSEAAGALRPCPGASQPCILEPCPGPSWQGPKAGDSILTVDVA

[14] = target: T7, human GALR2 (UniProt O43603 1-387); assay: 125I-human galanin competition binding
T7 chain: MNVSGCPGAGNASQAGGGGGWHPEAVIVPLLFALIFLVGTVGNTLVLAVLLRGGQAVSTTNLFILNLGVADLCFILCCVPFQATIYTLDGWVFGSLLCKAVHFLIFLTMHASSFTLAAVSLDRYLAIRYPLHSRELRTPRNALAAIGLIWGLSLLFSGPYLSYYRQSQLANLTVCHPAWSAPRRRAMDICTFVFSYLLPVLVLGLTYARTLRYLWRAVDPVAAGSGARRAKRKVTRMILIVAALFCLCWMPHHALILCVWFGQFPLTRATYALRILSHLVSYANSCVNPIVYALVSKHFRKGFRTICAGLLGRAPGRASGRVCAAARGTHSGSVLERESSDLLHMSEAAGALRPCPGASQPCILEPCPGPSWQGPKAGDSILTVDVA

Sequence of hGALR1* (human) (P47211 whole entry): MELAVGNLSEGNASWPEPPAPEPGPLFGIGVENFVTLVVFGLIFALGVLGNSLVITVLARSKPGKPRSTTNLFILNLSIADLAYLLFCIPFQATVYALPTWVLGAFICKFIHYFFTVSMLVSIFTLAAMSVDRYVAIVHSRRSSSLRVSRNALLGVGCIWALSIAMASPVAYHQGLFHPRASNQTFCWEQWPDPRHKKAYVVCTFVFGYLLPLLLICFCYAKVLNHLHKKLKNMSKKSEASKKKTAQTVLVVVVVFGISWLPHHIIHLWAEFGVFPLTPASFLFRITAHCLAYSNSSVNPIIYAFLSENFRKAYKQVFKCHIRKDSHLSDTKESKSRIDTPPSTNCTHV

For 125I-galanin, the Kd [1] is listed as about 1 nM.

Work on `CC(C)C[C@H](NC(=O)[C@H](CC(C)C)NC(=O)[C@@H](Cc1c[nH]c2ccccc12)NC(=O)[C@H](Cc1ccccc1)NC(=O)[C@@H](Cc1c[nH]c2ccccc12)NC(=O)[C@H](CCC(N)=O)NC(=O)[C@H](CCC(N)=O)NC(=O)[C@@H]1CCCN1C(=O)[C@H](CCCCN)NC(=O)[C@@H]1CCCN1C(=O)[C@@H](CCCNC(=N)N)NC(=O)[C@@H]1CCCN1C(=O)CNC(=O)[C@H](CC(C)C)NC(=O)[C@H](CC(C)C)NC(=O)[C@H](Cc1ccc(O)cc1)NC(=O)CNC(=O)[C@H](C)NC(=O)[C@H](CO)NC(=O)[C@H](CC(N)=O)NC(=O)[C@H](CC(C)C)NC(=O)[C@@H](NC(=O)[C@H](Cc1c[nH]c2ccccc12)NC(=O)CN)[C@@H](C)O)C(N)=O` [C7] yielded an IC50 [2] of 4.9 ± 3 nM and an IC50 [3] of 23 ± 13 nM.

With `CC[C@H](C)[C@H](NC(=O)[C@H](C)NC(=O)[C@H](Cc1c[nH]cn1)NC(=O)[C@@H]1CCCN1C(=O)CNC(=O)[C@H](CC(C)C)NC(=O)[C@H](CC(C)C)NC(=O)[C@H](Cc1ccc(O)cc1)NC(=O)CNC(=O)[C@H](C)NC(=O)[C@H](CO)NC(=O)[C@H](CC(N)=O)NC(=O)[C@H](CC(C)C)NC(=O)[C@@H](N)[C@@H](C)O)C(=O)N[C@@H](CC(=O)O)C(=O)N[C@@H](CC(N)=O)C(=O)N[C@@H](Cc1c[nH]cn1)C(=O)N[C@@H](CCCNC(=N)N)C(=O)N[C@@H](CO)C(=O)N[C@@H](Cc1ccccc1)C(=O)N[C@@H](CO)C(=O)N[C@@H](CC(=O)O)C(=O)N[C@@H](CCCCN)C(=O)N[C@@H](Cc1c[nH]cn1)C(=O)NCC(=O)N[C@@H](CC(C)C)C(=O)N[C@H](C(N)=O)[C@@H](C)O` [rat Gal (3-29)] the IC50 [4] was over 1000 nM, the IC50 [5] was over 1000 nM and the EC50 [6] was over 10000 nM.

Work on C7 yielded an IC50 [7] of 6.3 nM, an IC50 [8] of 40.5 nM and an IC50 [9] of 13.5 nM.

With M35 the IC50 [7] was 0.04 nM and the IC50 [8] was 5.6 nM.

With M35 (peptide) the IC50 [10] was 0.9 nM, the IC50 [11] was 0.43 nM and the EC50, aequorin bioluminescence in 293-AEQ17 cells [12] was 44 nM.

M40 gave an IC50 [7] of 0.48 nM, an IC50 [8] of 9.5 nM and an IC50 [9] of 1.8 nM.

For M40 (peptide), the IC50 [10] was 0.01 nM, the IC50 [11] was 1.9 nM and the EC50, aequorin bioluminescence in 293-AEQ17 cells [12] was 8.8 nM.

Work on galantide(M15) (peptide) yielded an IC50 [10] of 1 nM.

For TLNSAGYLLGPHAIDNHRSFSDKHGLT [rat Gal (3-29)], the “EC50, aequorin bioluminescence in 293-AEQ17 cells” value [13] was over 10000 nM and the IC50 [14] was over 1000 nM.

Work on GWTLNSAGYLLGPHAIDNHRSFSDKHGLT (ends and bridges not checked) [rat galanin] yielded an IC50 [14] of 1.6 nM.

GWTLNSAGYLLGPHAVGNH (peptide, UniProt P22466 33-51, looked up, range 1-19; also called hGal (1-19)) [human Gal (1-19)] gave an IC50 [10] of 0.86 nM.

In the case of WTLNSAGYLLGPHAIDNHRSFSDKHGLT (peptide, UniProt P10683 34-61, looked up, range 2-29; also called rGAL(2-29)) [rat Gal (2-29)], the IC50 [11] is reported as 2.9 nM, the “EC50, aequorin bioluminescence in 293-AEQ17 cells” value [13] is reported as 31 nM and the IC50 [14] is reported as 15.4 nM.

Reference: patent US6337206B1 (priority 1997, dated 2002)
